Data taken from US8119594B1, “Method of modulating integrin mediated cellular activity and agents useful for same” (Inter-K Pty Limited, priority 1999, dated 2012).

System: β6-bound ERK
Assay: β6 immunoprecipitation and ERK Western blot in transfected SW480 cells
Assay type: cell-based, human
Details: SW480 transfectants; mAb R6G9 immunoprecipitates probed with E10; FIG. 27(B)
Excerpt: Construction of the β6 Δ746-764 (SEQ ID NO. 19) deletion mutant in the vector pcDNA1neo and failure of the expressed receptor to localise to focal adhesions in Chinese hamster ovary cells has been reported (Cone et al, 1994).
Equal protein loads of cell lysates prepared from SW480 cells were immunoprecipitated with either anti-β6 monoclonal antibody (mAb R6G9) or matched isotype control antibody.

B1: β6 Δ746-764 deletion mutant: β6 subunit expressed from a deletion construct lacking the coding sequence for … (protein)
chain: WLCLGGAETCEDCLLIGPQCAWCAQENFTHPSGVGERCDTPANLLAKGCQLNFIENPVSQVEILKNKPLSVGRQKNSSDIVQIAPQSLILKLRPGGAQTLQVHVRQTEDYPVDLYYLMDLSASMDDDLNTIKELGSGLSKEMSKLTSNFRLGFGSFVEKPVSPFVKTTPEEIANPCSSIPYFCLPTFGFKHILPLTNDAERFNEIVKNQKISANIDTPEGGFDAIMQAAVCKEKIGWRNDSLHLLVFVSDADSHFGMDSKLAGIVIPNDGLCHLDSKNEYSMSTVLEYPTIGQLIDKLVQNNVLLIFAVTQEQVHLYENYAKLIPGATVGLLQKDSGNILQLIISAYEELRSEVELEVLGDTEGLNLSFTAICNNGTLFQHQKKCSHMKVGDTASFSVTVNIPHCERRSRHIIIKPVGLGDALELLVSPECNCDCQKEVEVNSSKCHHGNGSFQCGVCACHPGHMGPRCECGEDMLSTDSCKEAPDHPSCSGRGDCYCGQCICHLSPYGNIYGPYCQCDNFSCVRHKGLLCGGNGDCDCGECVCRSGWTGEYCNCTTSTDSCVSEDGVLCSGRGDCVCGKCVCTNPGASGPTCERCPTCGDPCNSKRSCIECHLSAAGQAGEECVDKCKLAGATISEEEDFSKDGSVSCSLQGENECLITFLITTDNEGKTIIHSINEKDCPKPPNIPMIMLGVSLATLLIGVVLLCIWKLLVSFHDRKEVAKFSTSTFKNVTYKHREKQKVDLSTDC
**Q.** For B1, which “reduction of β6-bound ERK relative to wild type receptor” value is on record?
**A.** > 75%
